# From patent US20170157188A1
# B1: WRTG18616-encoded anti-mPD-1 scFv, dimeric fraction (scFv, part only; not given: glycine-serine linker, V domains shown)
# VH: EVRLLESGGGLVKPEGSLKLSCVASGFTFSDYFMSWVRQAPGKGLEWVAHIYTKSYNYATYYSGSVKGRFTISRDDSRSMVYLQMNNLRTEDTATYYCTRDGSGYPSLDFWGQGTQVTVSS
# VL: YELTQPPSASVNVGETVKITCSGDQLPKYFADWFHQRSDQTILQVIYDDNKRPSGIPERISGSSSGTTATLTIRDVRAEDEGDYYCFSGYVDSDSKLYVFGSGTQLTVLHHHHHH
# modifications: Dimer of two identical scFv polypeptides (first gel-filtration peak); one copy is given. VH and VL are joined in the real chain by a Gly-Ser linker of undisclosed letters and are given here as two chains.
# Columns and labels:
# [1] = molecular target: cell-surface mouse PD-1 on EL4 and RMA T lymphoma cells (mouse) (UniProt Q02242); experiment: flow cytometry competition on EL4 cells against mPD-L1-hFc at 2 µg/ml
# [2] = molecular target: mouse PD-1 (coated in the competition ELISA) (mouse) (UniProt Q02242); experiment: competition ELISA, blocks mouse PD-L1 biot on coated mouse PD-1; dimeric fraction more efficient than monomeric
Molecule,IC50 [1] [µg/mL],difference in EC50 against the monomeric scFv [2] [log]
commercially available anti-mPD-1 antibody J43 (BioXCell),1.6,–
B1,–,1
